{"source": "paper PMC2120799", "molecular_target": "cdk2 (NIH-3T3 cells) (mouse (endogenous in NIH-3T3)) (UniProt P97377)", "test": "co-IP"}
{"substance": "p21 (NIH-3T3 cells) (from UniProt P39689 1-159) (natural protein)", "values": [{"measurement": "stoichiometry N (mol per mol cdk2)", "value": "< 1"}]}
{"substance": "p27 (NIH-3T3 cells) (from UniProt P46414 1-197) (natural protein)", "values": [{"measurement": "stoichiometry N (mol per mol cdk2)", "value": "< 1"}]}
